Assay results: patent US20140199314A1

Biological target: BMP-2 (UniProt P12643)
Assay: cell-based or functional assay

Sequence of UniProt P12643 (P12643 283-396 limits assumed): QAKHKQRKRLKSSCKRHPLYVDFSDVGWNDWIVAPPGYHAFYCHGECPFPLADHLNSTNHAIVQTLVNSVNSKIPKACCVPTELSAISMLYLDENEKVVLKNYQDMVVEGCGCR

Substance: DRAGON.Fc (soluble DRAGON fused to the Fc portion of human immunoglobulin) (from UniProt Q6NW40 46-409) (Fc fusion)
- inhibition of BMP-2 induction of hepcidin promoter activity (luciferase) by 20% pooled serum from DRAGON.Fc treated mice; serum from mock treated control mice inhibited by about 30%: > 70%
